{
  "source": "paper PMC12796453",
  "test_in_all_cases": "SPR",
  "key": {"[1]": {"molecular_target": "afucosylated A330W E269I KiH Rituximab IgG1 (human)"}, "[2]": {"molecular_target": "afucosylated agalactosylated KiH-A330W anti-DENV2 E protein IgG1 (C10) (human)"}, "[3]": {"molecular_target": "bifucosylated A330W E269I KiH Rituximab IgG1 (human)"}, "[4]": {"molecular_target": "bifucosylated A330W E269M KiH Rituximab IgG1 (human)"}, "[5]": {"molecular_target": "monofucosylated A330W E269I KiH Rituximab IgG1 (human)"}, "[6]": {"molecular_target": "monofucosylated A330W E269M KiH Rituximab IgG1 (human)"}, "[7]": {"molecular_target": "monoglycosylated bifucosylated IgG (human)"}, "[8]": {"molecular_target": "monoglycosylated monofucosylated IgG (human)"}},
  "data": [
    {"substance": "soluble human FcγRIIIA-F158 ectodomain (from UniProt P08637 17-208) (receptor)", "values": [
      {"measurement": "Kd", "setting": "[1]", "value": 159, "unit": "nM"},
      {"measurement": "Kd", "setting": "[2]", "value": 39, "unit": "nM"},
      {"measurement": "Kd", "setting": "[3]", "value": 2070, "unit": "nM"},
      {"measurement": "Kd", "setting": "[4]", "value": 1480, "unit": "nM"},
      {"measurement": "Kd", "setting": "[5]", "value": 698, "unit": "nM"},
      {"measurement": "Kd", "setting": "[6]", "value": 119, "unit": "nM"},
      {"measurement": "Kd", "setting": "[7]", "value": 1640, "unit": "nM"},
      {"measurement": "Kd", "setting": "[8]", "value": 554, "unit": "nM"}
    ]}
  ]
}
